The target in this data set is T1, CasEnd-24 (synthetic construct).
T1 chain: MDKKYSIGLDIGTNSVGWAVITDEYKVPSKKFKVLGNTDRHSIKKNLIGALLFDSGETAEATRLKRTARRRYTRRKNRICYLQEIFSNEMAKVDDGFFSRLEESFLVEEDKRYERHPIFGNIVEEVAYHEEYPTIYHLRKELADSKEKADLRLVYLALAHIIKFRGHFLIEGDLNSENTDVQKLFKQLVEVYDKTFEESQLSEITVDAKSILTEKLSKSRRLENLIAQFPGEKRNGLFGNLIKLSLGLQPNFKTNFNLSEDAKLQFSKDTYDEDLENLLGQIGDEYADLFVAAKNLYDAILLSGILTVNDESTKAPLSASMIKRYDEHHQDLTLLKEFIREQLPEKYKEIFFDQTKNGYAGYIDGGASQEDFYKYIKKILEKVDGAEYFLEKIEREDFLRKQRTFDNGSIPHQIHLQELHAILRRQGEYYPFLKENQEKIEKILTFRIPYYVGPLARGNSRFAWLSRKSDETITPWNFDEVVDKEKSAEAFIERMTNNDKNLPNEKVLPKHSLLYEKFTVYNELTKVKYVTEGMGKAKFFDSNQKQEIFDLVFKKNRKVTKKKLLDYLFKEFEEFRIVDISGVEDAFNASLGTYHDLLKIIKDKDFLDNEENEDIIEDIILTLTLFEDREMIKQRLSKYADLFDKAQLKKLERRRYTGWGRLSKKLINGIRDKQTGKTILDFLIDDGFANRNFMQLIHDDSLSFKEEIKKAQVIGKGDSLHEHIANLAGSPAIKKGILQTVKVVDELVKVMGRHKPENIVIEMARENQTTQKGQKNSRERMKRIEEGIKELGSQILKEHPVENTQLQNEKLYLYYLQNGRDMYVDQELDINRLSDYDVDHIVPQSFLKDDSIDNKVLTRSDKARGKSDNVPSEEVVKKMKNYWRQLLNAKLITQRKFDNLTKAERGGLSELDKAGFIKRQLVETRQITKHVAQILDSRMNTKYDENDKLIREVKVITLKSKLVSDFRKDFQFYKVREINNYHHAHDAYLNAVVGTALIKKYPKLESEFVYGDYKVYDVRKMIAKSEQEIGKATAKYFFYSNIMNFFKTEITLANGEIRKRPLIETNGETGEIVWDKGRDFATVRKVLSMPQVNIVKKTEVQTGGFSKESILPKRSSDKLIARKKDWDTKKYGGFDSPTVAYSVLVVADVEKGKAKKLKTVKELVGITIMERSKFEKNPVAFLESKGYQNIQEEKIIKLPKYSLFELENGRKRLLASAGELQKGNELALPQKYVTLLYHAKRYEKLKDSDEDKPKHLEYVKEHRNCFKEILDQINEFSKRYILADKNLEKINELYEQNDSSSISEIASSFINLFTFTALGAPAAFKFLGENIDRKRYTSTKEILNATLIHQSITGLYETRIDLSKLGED
The data set is described as follows: cell_activity; +++; HEK293T; PAM not stated. The method, then: The ability of the candidate endonucleases, including endonucleases 1-38 (CasEnds 1-38) (set forth in Table 1 and SEQ ID NOS: 1-38, respectively), to mediate target nucleic acid editing was assessed utilizing a blue fluorescent protein (BFP) to green fluorescent protein (GFP) conversion assay, wherein programmed nucleotide editing of the BFP gene was measured by the expression of GFP (signifying the conversion of […] via the programmed nucleotide edit in the BFP gene). The conversion assay was conducted utilizing the reverse transcriptase-based system (as described above in Example 2) comprising a template RNA (designed to convert BFP to GFP) and a fusion protein comprising a retroviral reverse transcriptase and the individual subject Cas endonuclease. The amino acid sequence of the base portion of the fusion protein (without the individual subject Cas endonuclease) is set forth in Table 7 (SEQ ID NO: 43).
Briefly, 200 ng of plasmid DNA encoding the subject fusion protein (containing one of the subject CasEnds) and 200 ng of template RNA (in plasmid format) were added to 25 μL SF buffer containing 250,000 HEK293T BFP-expressing cells. Nucleofection was mediated utilizing program DS-150. The day of nucleofection was marked as day 0. At day 4, the cells were harvested and analyzed by flow cytometry to assess the level of BFP and GFP expression in HEK293T cells. Cells having GFP signal were defined as having undergone a successful editing event, and the percent of cells that were GFP+ on day 4 was used to determine the performance of each Cas endonuclease.

B1: BFP-to-GFP template RNA ; BFP reporter protospacer (ssRNA ; dsDNA)
RNA: GCCGAAGCACUGCACGCCGUGUUUUAGAGCUAGAAAUAGCAAGUUAAAAUAAGGCUAGUCCGUUAUCAACUUGAAAAAGUGGCACCGAGUCGGUGCACCCUGACGUACGGCGUGCAGUGCUU
DNA 1: GCCGAAGCACTGCACGCCGT
DNA 2: ACGGCGTGCAGTGCTTCGGC
In the case of B1, the activity is ≥ 100 % of reference.

Source of the values: patent publication US20250092426, “CAS ENDONUCLEASES AND RELATED METHODS” (Flagship Pioneering Innovations VII, LLC, published 2025).
